From patent publication US7919233B2, “Motif of the beclin protein which interacts with anti-apoptotic members of the Bcl-2 protein family, and uses” (Les Laboratoires Servier, priority 2005, dated 2011)

How the values were obtained:
Format in all cases: binding
Settings in all cases: relative to the Beclin peptide according to the invention
[1] = target: Bcl-XL (Homo sapiens, UniProt Q07817); test: Ki by fluorescence polarisation: competition with the Bak BH3 carboxyfluorescein peptide for Bcl-XL
Experimental: (§1) The determination of Ki using fluorescence polarisation consists of measuring the competitive effect of the Beclin peptide on the interaction between the pro-apoptotic Bak peptide and anti-apoptotic members of the Bcl-2 protein family such as Bcl-XL, Bcl-2 or Bcl-W.
(§2) The following reagents are mixed together in the order stated: • a) competitor peptide at a final concentration of from 1 nM to 100 μM; • b) fluorescent peptide ligand (Bak BH3 carboxyfluorescein) at a final concentration of 15 nM; • c) anti-apoptotic member of the Bcl-2 protein family at a final concentration of 100 nM for Bcl-XL and of 1 μM for Bcl-2 and Bcl-W.
(§3) These reagents are dissolved in the interaction buffer (Na2HPO4 20 mM pH 7.4, EDTA 1 mM, NaCl 50 mM and pluronic acid F-68 0.05%).
(§4) The mixture is then incubated for 30 minutes at ambient temperature and the fluorescence polarisation is determined on a Fusion apparatus (Packard) (excitation at 485 nm and reading at 530 nm). The values are given in mP (unit of fluorescence polarisation).
(§5) The protocol for the determination of Ki using fluorescence polarisation is the same as the protocol described above.

[2] = target: Bcl-2 (Homo sapiens, UniProt P10415); test: Ki by fluorescence polarisation: competition with the Bak BH3 carboxyfluorescein peptide for Bcl-2
Experimental: as §1, §2, §3, §4, §5

[3] = target: T1, Bcl-W (Homo sapiens, UniProt Q92843); test: Ki by fluorescence polarisation: competition with the Bak BH3 carboxyfluorescein peptide for Bcl-W
T1 sequence (Q92843 1-193): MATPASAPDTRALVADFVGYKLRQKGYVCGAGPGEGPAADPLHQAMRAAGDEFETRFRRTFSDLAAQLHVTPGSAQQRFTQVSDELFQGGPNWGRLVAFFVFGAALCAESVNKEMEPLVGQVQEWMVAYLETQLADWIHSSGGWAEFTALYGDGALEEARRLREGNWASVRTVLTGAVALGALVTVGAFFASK
Experimental: as §1, §2, §3, §4, §5

Sequence of Bcl-2 (P10415 whole entry): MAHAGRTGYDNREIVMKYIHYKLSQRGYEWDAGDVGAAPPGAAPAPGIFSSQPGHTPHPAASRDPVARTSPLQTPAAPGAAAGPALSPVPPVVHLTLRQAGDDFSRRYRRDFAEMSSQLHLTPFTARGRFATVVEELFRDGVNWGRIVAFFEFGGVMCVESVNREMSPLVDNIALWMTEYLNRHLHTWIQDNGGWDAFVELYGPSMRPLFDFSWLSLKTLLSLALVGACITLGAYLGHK
Sequence of Bcl-XL (Q07817 whole entry): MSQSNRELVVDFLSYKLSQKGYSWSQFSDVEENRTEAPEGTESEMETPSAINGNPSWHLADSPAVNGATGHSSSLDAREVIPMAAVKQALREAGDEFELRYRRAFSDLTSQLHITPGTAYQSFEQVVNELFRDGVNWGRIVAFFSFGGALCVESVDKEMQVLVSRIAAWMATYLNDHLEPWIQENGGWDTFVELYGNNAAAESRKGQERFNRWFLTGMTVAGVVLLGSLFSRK

GTMENLSRRAKVTGDLFDIMSGQTDV (Mutated Beclin Peptide) [mutant Beclin protein (L116A)]
loss of competitive effect: competitive effect on the interaction between Bak peptide and Bcl-XL [1] | competitive effect on the interaction between Bak peptide and Bcl-2 [2] | competitive effect on the interaction between Bak peptide and Bcl-W [3]
